Test results: PMC9140497

Target: α2β1 integrin (human (endogenous in HT1080)) (UniProt P17301)
Chain of UniProt P17301 (P17301 30-1181, chain 1 of 2): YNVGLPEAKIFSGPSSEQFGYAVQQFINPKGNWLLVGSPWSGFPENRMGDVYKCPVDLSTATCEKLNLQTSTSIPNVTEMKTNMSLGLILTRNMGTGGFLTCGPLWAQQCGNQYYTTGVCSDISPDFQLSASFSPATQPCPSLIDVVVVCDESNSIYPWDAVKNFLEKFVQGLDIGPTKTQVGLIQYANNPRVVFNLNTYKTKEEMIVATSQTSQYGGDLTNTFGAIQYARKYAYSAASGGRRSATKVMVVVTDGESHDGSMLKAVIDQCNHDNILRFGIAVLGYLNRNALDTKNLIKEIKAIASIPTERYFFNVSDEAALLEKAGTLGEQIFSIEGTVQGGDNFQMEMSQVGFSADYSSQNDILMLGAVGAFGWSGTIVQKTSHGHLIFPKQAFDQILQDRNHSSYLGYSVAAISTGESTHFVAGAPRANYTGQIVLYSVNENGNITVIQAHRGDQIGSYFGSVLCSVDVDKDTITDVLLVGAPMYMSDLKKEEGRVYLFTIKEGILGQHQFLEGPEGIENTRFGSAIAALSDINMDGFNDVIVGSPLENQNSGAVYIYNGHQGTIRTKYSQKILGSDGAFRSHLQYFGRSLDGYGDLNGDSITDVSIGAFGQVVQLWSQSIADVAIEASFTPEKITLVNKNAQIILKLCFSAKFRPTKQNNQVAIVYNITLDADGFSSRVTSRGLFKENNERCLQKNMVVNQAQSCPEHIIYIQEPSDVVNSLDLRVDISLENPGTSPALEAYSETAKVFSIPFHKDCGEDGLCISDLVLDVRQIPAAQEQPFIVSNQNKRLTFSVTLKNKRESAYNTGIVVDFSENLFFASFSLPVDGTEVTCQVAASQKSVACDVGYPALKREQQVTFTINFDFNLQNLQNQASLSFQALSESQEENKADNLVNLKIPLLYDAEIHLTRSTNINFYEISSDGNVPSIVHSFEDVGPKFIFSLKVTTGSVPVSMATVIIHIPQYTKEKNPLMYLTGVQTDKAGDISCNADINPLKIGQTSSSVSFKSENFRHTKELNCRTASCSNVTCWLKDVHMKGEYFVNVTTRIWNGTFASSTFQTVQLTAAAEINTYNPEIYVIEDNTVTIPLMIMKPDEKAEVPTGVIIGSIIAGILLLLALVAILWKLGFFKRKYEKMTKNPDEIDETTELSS
Chain of UniProt P17301 (P05556 21-798, chain 2 of 2, further chain): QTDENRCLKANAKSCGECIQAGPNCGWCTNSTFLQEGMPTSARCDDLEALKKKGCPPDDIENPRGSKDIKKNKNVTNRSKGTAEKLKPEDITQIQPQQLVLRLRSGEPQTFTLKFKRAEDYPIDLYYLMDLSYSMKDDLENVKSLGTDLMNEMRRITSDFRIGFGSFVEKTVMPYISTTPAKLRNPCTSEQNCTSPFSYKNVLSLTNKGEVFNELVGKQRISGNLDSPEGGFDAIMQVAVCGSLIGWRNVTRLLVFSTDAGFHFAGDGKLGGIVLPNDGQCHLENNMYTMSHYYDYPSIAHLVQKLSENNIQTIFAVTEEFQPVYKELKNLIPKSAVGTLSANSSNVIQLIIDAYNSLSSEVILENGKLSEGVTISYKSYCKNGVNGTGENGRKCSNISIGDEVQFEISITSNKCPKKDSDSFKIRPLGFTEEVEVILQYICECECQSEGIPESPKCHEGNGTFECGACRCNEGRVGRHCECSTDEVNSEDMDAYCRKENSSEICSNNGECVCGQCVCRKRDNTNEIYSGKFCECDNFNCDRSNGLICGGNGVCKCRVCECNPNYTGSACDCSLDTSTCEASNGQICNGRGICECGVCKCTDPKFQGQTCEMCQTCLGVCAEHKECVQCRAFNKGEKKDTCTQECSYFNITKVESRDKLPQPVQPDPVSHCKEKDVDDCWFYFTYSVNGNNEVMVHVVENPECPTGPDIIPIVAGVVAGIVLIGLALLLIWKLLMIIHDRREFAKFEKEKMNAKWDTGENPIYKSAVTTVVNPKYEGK

**Q.** With GFOGER peptide as the substance, how does the adhesion of HT1080 cells pre-incubated with 10 μg/mL mAb13 (anti-β1) on Fmoc-FF/S/GFOGER hydrogel read?
**A.** 23%

**Q.** With “Rat Tail Collagen (from UniProt P02454 152-1207; P02466 86-1125) (natural protein)” as the substance, how does the adhesion of HT1080 cells pre-incubated with 10 μg/mL mAb13 (anti-β1) on RTC-modified hydrogel read?
**A.** 15%
